{"source": "patent US20210115092A1", "about": "(YEDA RESEARCH AND DEVELOPMENT, published 2021)", "data": [{"target": "T1, Flag-Cas9 (wild-type, unmodified SpCas9) (Streptococcus pyogenes, UniProt Q99ZW2 2-1368)", "T1 construct": "expressed in HEK293; also called original Cas9; wt Cas9; not shown: Flag tag and N-terminal NLS of the vector; C-terminal NLS and what remains of the T2A peptide", "T1 sequence (Q99ZW2 2-1368)": "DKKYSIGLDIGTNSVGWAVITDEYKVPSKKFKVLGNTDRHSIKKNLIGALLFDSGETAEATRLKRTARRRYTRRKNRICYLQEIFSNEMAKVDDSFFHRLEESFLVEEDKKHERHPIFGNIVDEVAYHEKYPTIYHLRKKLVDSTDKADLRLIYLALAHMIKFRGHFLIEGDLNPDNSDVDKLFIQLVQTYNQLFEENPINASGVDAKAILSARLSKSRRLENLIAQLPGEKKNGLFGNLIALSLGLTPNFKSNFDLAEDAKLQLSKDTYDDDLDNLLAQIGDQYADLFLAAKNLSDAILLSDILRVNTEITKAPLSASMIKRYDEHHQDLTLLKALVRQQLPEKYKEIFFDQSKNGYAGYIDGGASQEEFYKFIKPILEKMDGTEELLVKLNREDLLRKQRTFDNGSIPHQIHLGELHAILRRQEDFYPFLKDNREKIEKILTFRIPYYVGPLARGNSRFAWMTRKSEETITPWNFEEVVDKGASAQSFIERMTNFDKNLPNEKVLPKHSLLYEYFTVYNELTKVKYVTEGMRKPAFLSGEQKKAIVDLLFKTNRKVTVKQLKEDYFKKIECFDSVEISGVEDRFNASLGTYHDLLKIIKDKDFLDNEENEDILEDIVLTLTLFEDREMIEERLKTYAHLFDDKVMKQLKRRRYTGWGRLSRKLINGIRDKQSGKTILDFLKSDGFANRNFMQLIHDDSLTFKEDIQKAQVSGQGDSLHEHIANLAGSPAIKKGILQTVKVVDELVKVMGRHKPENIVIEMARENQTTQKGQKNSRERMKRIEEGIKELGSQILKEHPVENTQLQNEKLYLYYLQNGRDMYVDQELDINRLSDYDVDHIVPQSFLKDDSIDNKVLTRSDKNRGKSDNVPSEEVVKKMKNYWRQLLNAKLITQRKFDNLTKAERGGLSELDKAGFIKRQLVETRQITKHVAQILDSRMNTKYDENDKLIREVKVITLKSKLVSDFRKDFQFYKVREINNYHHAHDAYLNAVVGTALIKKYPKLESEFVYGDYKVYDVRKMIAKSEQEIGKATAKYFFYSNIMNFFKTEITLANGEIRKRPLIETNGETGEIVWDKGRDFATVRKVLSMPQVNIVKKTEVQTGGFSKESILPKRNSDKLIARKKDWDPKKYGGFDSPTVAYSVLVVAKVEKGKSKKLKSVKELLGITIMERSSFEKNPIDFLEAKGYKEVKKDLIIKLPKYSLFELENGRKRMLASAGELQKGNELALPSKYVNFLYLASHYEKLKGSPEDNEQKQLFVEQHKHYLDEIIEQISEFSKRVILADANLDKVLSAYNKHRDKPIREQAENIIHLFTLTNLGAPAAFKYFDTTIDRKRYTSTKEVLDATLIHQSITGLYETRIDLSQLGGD", "test": "co-immunoprecipitation, anti-Flag IP from transfected HEK293 extracts, immunoblot", "values": [{"binder": "DNA repair protein RAD50 (other) MSRIEKMSILGVRSFGIEDKDKQIITFFSPLTILVGPNGAGKTTIIECLKYICTGDFPPGTKGNTFVHDPKVAQETDVRAQIRLQFRDVNGELIAVQRSMVCTQKSKKTEFKTLEGVITRTKHGEKVSLSSKCAEIDREMISSLGVSKAVLNNVIFCHQEDSNWPLSEGKALKQKFDEIFSATRYIKALETLRQVRQTQGQKVKEYQMELKYLKQYKEKACEIRDQITSKEAQLTSSKEIVKSYENELDPLKNRLKEIEHNLSKIMKLDNEIKALDSRKKQMEKDNSELEEKMEKVFQGTDEQLNDLYHNHQRTVREKERKLVDCHRELEKLNKESRLLNQEKSELLVEQGRLQLQADRHQEHIRARDSLIQSLATQLELDGFERGPFSERQIKNFHKLVRERQEGEAKTANQLMNDFAEKETLKQKQIDEIRDKKTGLGRIIELKSEILSKKQNELKNVKYELQQLEGSSDRILELDQELIKAERELSKAEKNSNVETLKMEVISLQNEKADLDRTLRKLDQEMEQLNHHTTTRTQMEMLTKDKADKDEQIRKIKSRHSDELTSLLGYFPNKKQLEDWLHSKSKEINQTRDRLAKLNKELASSEQNKNHINNELKRKEEQLSSYEDKLFDVCGSQDFESDLDRLKEEIEKSSKQRAMLAGATAVYSQFITQLTDENQSCCPVCQRVFQTEAELQEVISDLQSKLRLAPDKLKSTESELKKKEKRRDEMLGLVPMRQSIIDLKEKEIPELRNKLQNVNRDIQRLKNDIEEQETLLGTIMPEEESAKVCLTDVTIMERFQMELKDVERKIAQQAAKLQGIDLDRTVQQVNQEKQEKQHKLDTVSSKIELNRKLIQDQQEQIQHLKSTTNELKSEKLQISTNLQRRQQLEEQTVELSTEVQSLYREIKDAKEQVSPLETTLEKFQQEKEELINKKNTSNKIAQDKLNDIKEKVKNIHGYMKDIENYIQDGKDDYKKQKETELNKVIAQLSECEKHKEKINEDMRLMRQDIDTQKIQERWLQDNLTLRKRNEELKEVEEERKQHLKEMGQMQVLQMKSEHQKLEENIDNIKRNHNLALGRQKGYEEEIIHFKKELREPQFRDAEEKYREMMIVMRTTELVNKDLDIYYKTLDQAIMKFHSMKMEEINKIIRDLWRSTYRGQDIEYIEIRSDADENVSASDKRRNYNYRVVMLKGDTALDMRGRCSAGQKVLASLIIRLALAETFCLNCGIIALDEPTTNLDRENIESLAHALVEIIKSRSQQRNFQLLVITHDEDFVELLGRSEYVEKFYRIKKNIDQCSEIVKCSVSSLGFNVH", "binding result": "no binding"}, {"binder": "Double-strand break repair protein MRE11A (enzyme) STADALDDENTFKILVATDIHLGFMEKDAVRGNDTFVTLDEILRLAQENEVDFILLGGDLFHENKPSRKTLHTCLELLRKYCMGDRPVQFEILSDQSVNFGFSKFPWVNYQDGNLNISIPVFSIHGNHDDPTGADALCALDILSCAGFVNHFGRSMSVEKIDISPVLLQKGSTKIALYGLGSIPDERLYRMFVNKKVTMLRPKEDENSWFNLFVIHQNRSKHGSTNFIPEQFLDDFIDLVIWGHEHECKIAPTKNEQQLFYISQPGSSVVTSLSPGEAVKKHVGLLRIKGRKMNMHKIPLHTVRQFFMEDIVLANHPDIFNPDNPKVTQAIQSFCLEKIEEMLENAERERLGNSHQPEKPLVRLRVDYSGGFEPFSVLRFSQKFVDRVANPKDIIHFFRHREQKEKTGEEINFGKLITKPSEGTTLRVEDLVKQYFQTAEKNVQLSLLTERGMGEAVQEFVDKEEKDAIEELVKYQLEKTQRFLKERHIDALEDKIDEEVRRFRETRQKNTNEEDDEVREAMTRARALRSQSEESASAFSADDLMSIDLAEQMANDSDDSISAATNKGRGRGRGRRGGRGQNSASRGGSQRGRADTGLETSTRSRNSKTAVSASRNMSIIDAFKSTRQQPSRNVTTKNYSEVIEVDESDVEEDIFPTTSKTDQRWSSTSSSKIMSQSQVSKGVDFESSEDDDDDPFMNTSSLRRNRR", "binding result": "no binding"}, {"binder": "Nibrin (other, also called Nbs1; NBN) MWKLLPAAGPAGGEPYRLLTGVEYVVGRKNCAILIENDQSISRNHAVLTANFSVTNLSQTDEIPVLTLKDNSKYGTFVNEEKMQNGFSRTLKSGDGITFGVFGSKFRIEYEPLVACSSCLDVSGKTALNQAILQLGGFTVNNWTEECTHLVMVSVKVTIKTICALICGRPIVKPEYFTEFLKAVESKKQPPQIESFYPPLDEPSIGSKNVDLSGRQERKQIFKGKTFIFLNAKQHKKLSSAVVFGGGEARLITEENEEEHNFFLAPGTCVVDTGITNSQTLIPDCQKKWIQSIMDMLQRQGLRPIPEAEIGLAVIFMTTKNYCDPQGHPSTGLKTTTPGPSLSQGVSVDEKLMPSAPVNTTTYVADTESEQADTWDLSERPKEIKVSKMEQKFRMLSQDAPTVKESCKTSSNNNSMVSNTLAKMRIPNYQLSPTKLPSINKSKDRASQQQQTNSIRNYFQPSTKKRERDEENQEMSSCKSARIETSCSLLEQTQPATPSLWKNKEQHLSENEPVDTNSDNNLFTDTDLKSIVKNSASKSHAAEKLRSNKKREMDDVAIEDEVLEQLFKDTKPELEIDVKVQKQEEDVNVRKRPRMDIETNDTFSDEAVPESSKISQENEIGKKRELKEDSLWSAKEISNNDKLQDDSEMLPKKLLLTEFRSLVIKNSTSRNPSGINDDYGQLKNFKKFKKVTYPGAGKLPHIIGGSDLIAHHARKNTELEEWLRQEMEVQNQHAKEESLADDLFRYNPYLKRRR", "binding result": "no binding"}]}]}
